These results are taken from a protein production outcome set (Wang et al. 2014).

A short description of the data set: label from the status in PepcDB records.
“MKKRIILLLAVIIAAAAAGVAFYVAKDKGHEKAADVSVNTESGDELLVSITDTDLLTKYYENDKVIHEEKLTSYPAFALDQKQQVLYYTGNNEQNEMRLFKLDLKSHKKTMLYKGAESADSLFLSKDRSTIYFRLGKADESNFRIAAFDLKTKKYKNLYPAANDQDDTVSSFFYNQKNDSFALLHYSVEEDYKKTDEANEKGIDPEPTTIHFAEGRQNKFNELKSLNQFISDIAVSDDDKRILFTSYTQKGTEQTASIQMLNADTKKYESIISNQKSFKLLIDAQPQFSKDGKNIYFLAEAKGAKKLKDETGREAKVRTIYSYSLENKTFKKVWENPNGIINSFFVIN”: the protein production entry is “failed”.

As for “MKKRILSAVLVSGVTLGTAAVTVNADDFDSKIAATDSVINTLSGQQAAAQNQVTAIKGQVGALESQQSELEAQNAQLEAVSQQLGQEIQTLSNKIVARNESLKKQVRSAQKGNLTNYINTILNSKSVSDAVNRVVAIREVVSANEKMLAQQEADKAALEAKQIENQNAINTVAANKQAIENNKAALATQRAQLEAAQLELSAQLTTVQNEKASLIQAKAQAEEAARKAAEAQAAAEAKAQAEAKAQAESVAKAQAAAQVESATAPTETVQTQPRTEIKPSNLTATSSATTVATTTATATNEPKVTQPSVVTKAVEAPKAVVSSTPRAVSKPVVRSYDSSNTYPMGQCTWGAKSMASWVGNYWGNANQWGASARAAGYSVGTTPRVGAVAVWPYDGGGYGHVAVVTSVANNSSIQVMESNYAGNMSIGNYRGSFNPSASGSVYYIYPN”, the protein production result was “failed”.

In the case of “MKKRILSAVLVSGVTLSAAASVHAEDYDSQIAATNNAISNLASQQEAAQAQVATIQSQVSTLRTQKTELEAKNAELEKVSADLESEIQELSSKIVARQDSLAKQARSAQQNNTATSYINSILNSKSISEAITRITAISKVVTANNDLLTKQESDQKELAAKQEENQAAINTIAANKSELETTEAGLTTQQAELEAAQVTLAAELATAQNEKTSLVSAKSTAESVAASTAASVAQSQAIAESEATAQVVASSEAATSVASSEVAATSEAVAQPSETPVSETSTASEAAQEPASSETSEVQPESAAPAVSEAPASVAPVATSEAAPATSEAPASVAPVATSEAAPAVSEAPAPAAETHKVSAASTPNTYPVGQCTWGVKSLAPWAGNNWGNAKNWIASAQAAGHSVGTTPVAGAIAVWPNDGGGYGHVAYVTSASGANSIQVMESNYAGNMSISNYRGTFDPTSSAHGGSVFYIYPLEHHHHHH”, the protein production entry is “not failed”. Turning to “MKKRYKNPEKSGSCGNFIQAIKMTDKVQPLESLSKKPEEPKIVVNLRRIKRKIMVMSGKGGVGKSTVAANLAVGLALRGHRVGLLDCDIHGPTVPTIFGLESARPGVSEEGILPIEVLPNLSVMSIGFLLENKDSPIIWRGPAKMGAIKQFLEEVFWGALDFLIIDLPPGTGDEPLSVAQLIPNCDGSVLVTTPQDVALISVRKSITFSEKLNVPIIGLVDNMHGLICPHCGKPIEVFGSGGVEKASKDFNIPILARLPIEPGVAEMEDRGTVVQDQLKHGTEWQKNFDNVVDAVEKILEKELEHHHHHH”, the protein production result was “not failed”. With “MKKSLIAFILIFMLVLSGCGMKDNDKQGSNDNGSSKSPYHRIVSLMPSNTEILYELGLGKYIVGVSTVDDYPKDVKKGKKQFDALNLNKEELLKAKPDLILAHESQKATANKVLSSLEKQGIKVVYVKDAQSIDETYNTFKQIGKLTHHDKQAEQLVEETKDNIDKVIDSIPAHHKKSKVFIEVSSKPEIYTAGKHTFFNDMLEKLEAQNVYSDINGWNPVTKESIIKKNPDILISTEAKTRSDYMDIIKKRGGFNKINAVKNTRIEVVNGDEVSRPGPRIDEGLKELRDAIYRK”, the protein production entry is on record as “failed”.

With “MKKTKVHLISGFLGTGKTTALKSLMAQKDPNEKWVIIVNEFGEIGIDGAVLSDNGIPVAEIAGGCLCCTAGPQMGVTVQKMLRDAKPDRLMIEASGLAHAASVIDELKTKPLDSLLEIGAVFTVVDPRQFINPDYAQQALYKDQIGICDVLVASKTDLCTPEQLAEFHDKAAKLFPPKAKVVEVQNAQLDIQWLDIPVIEKSRYRLKALPDNTMGFQSQGFTFPAGRDFDGEKLTNFFNDLPNMTEGLVRAKGVFQVLGTWVWLNWVDGQWGANQVSWRRDSRFELIAKSFDADLIEQKLKDALELEHHHHHH”, the protein production entry was “failed”. As for “MKKTLILGATPETNRYAYLAAERLKSHGHEFIPVGRKKGEVLGKTIINERPVIEGVDTVTLYINPQNQLSEYNYILSLKPKRVIFNPGTENEELEEILSENGIEPVIGCTLVMLSAGTF”, the protein production result was “not failed”. With “MKKTLPKTEAPSSVGNGSDSPIEFDAIIRQVPDMDAAYVEIPFDVKTVYGKGRVRVNATFDGYPYTGYIVRMGLPCHILGLRQDIRRAIGKQPGDSVYVTLLPL”, the protein production entry is on record as “not failed”. Take “MKKTLSVLVISSLLFGANVQAAALNAAQEKEVRALVRDTLVSNPEILEEAIMALQTKKADEQQAQFRQALASEHDALYNDAASPRIGAKDAKLVLVSFTDYNCPYCKRFDPLLEKITEQYPDVAVIIKPLPFKGESSAKASQAVLSVWKEDPKAFLALHQRLMQKKTMLDNASIEDAMKSTNTSKIKLTDDSLKTLQNNLELSRKLGIQGTPATVIGDTILPGAVDYDQLEIIVKEQLAKVKK”: the protein production entry is on record as “failed”. For “MKKTLVIVVHPDLTKSVINKAWAKAIEGAATIHHLYEQYPNGQIDLAHEQALLEAHDRIVFQFPLYWYAAPYLLKKWMDEVFTEGWAYGAGGDKMEGKEICAAVSCGSPKSAFAEGAQQCHTLRSYLNVFDGIAAFLRARFTGYHACYDSYNPRLPEMLPANCEAYLRFIKGE”, the protein production result is recorded as “failed”. Consider “MKKTMAKSLSVIIPACNEIDTISDVIQSVKGLNPLEIIVVANGCTDGTETVAEHLGCKVLRYTEKLGNDVGRAAGAKEAIGDVLLFIDGDFAIQTSKLQLFLNPILYNQADVVLNNLDALFLKRQKPNSITVWRQILNSILEREELKIDSLLAVPHALTKEVVQSIGYECFVNPILAHLRLVQGKWRISRHCAIDVITPNKFRPTEHAAYGTDLSPSEKRMIGDHIEAVAERIVGSDERGGYCDGNRKRDSVYHTLDFEDFYQGWGVTSNLYKGKQLSVIIPVQNEEKTIGNVIEEVRKIEPFEIIVVVNGSSDQTATIAKDKGATTIVYKEALGNDVGRSLGTYFAKGEIVLFIDGDFVIPASELYPFAKAIADGTDVALNDLNHYLDLRVPLHLVTAFKYALNLACDRKDLGVGSLVAVPNAFSRKCLKQIGYRSLLAPCVAQVKAILSGFEVACVSRVEVDKMNRIRPSEHLAKIGHPPAVLRIIGDHIEGLEQLIGLTGSRGGFHDGNRKRDIL”, for which the protein production entry was “failed”. In the case of “MKKTPIYVEISIQAEMERLWRYTQDPTLHRQWDLRFTDITYLKRRPGEPQRFLYETRIGFGLKISGTGESAGNVFQDTGDRVSSLKFATNHPLSVIREGRGYWKYSESETGITFMTQYDYDTRYGRLGRLADMAFRPLLGWATAWSFDALKIWLEKGLHPRLLFQKTLVYWLVCLLFSFVWIYQGLVPKLIMAHPGEISMLSAFTGGRFHPETLLRLIGLAEVMVGVLWLYPVRKRKWFLLHIVLLVLLSASAGMADIASFAEPFNPVVLNAALIILSVIGYVSACGIPNAGNTIRKRR”, the protein production entry is recorded as “failed”.

“MKKVFDVWDVETAKRFLEIIKDEPIYYPALIALHTGMRAGEILSLKWCDVNFETRVISIVKSERKNRGLKTVNLKTKTSKRAVYMNDILYKELKNLYEITKPKPDDFVCPRLPTGNLTVNYLSRKFKKLVKKHNFPLIRFHDLRHTFATLMLSLGVNTKIVAEILGHSDIKLTADTYSHVLPTMQEEAMKEFVKLWKLEHHHHHH”: the protein production entry is “not failed”. With “MKKVSIIIPFKGQTEAELMLPLSSIYNQIGVDLSQLDIHLVNDGGKTIDLSKFDVLADRLEIHYHEIPNGGPGVARQYGIDNSISEYIMFIDADDVLYYVGALWPFYNASNQGHQMIRASYWEQIAGNPYTYTVHGNGDRKAAYGKWYKRSYIEMLGLRFMPDLPIYEDTYFVGLACELATDTCFLEEKVYMWLANPNSITRTVENKFNYQAHIYARENRYWFEMIRKWKPECLEHHHHHH”, the protein production result is listed as “failed”. For the sequence “MKKVSIIIPFKGQTEAELMLPLSSIYNQIGVDLSQLDIHLVNDGGKTIDLSKFDVLADRLEIHYHEIPNGGPGVARQYGIDNSISEYIMFIDADDVLYYVGALWPFYNASNQGHQMIRASYWEQIAGNPYTYTVHGNGDRKAAYGKWYKRSYIEMLGLRFMPDLPIYEDTYFVGLACELATDTCFLEEKVYMWLANPNSITRTVENKFNYQAHIYARENRYWFEMIRKWKPECLVTDFENYLTNMYLKSQKYPPVDEKAWWEEQHKLITSVSDIFSGWTQELQKQVEDKSANPQNEWHGIETDGFKEWATQSLPW”, the protein production entry is “failed”.
